Test results reported in patent publication US20220378956A1.

Experiments:
soluble uPAR (suPAR) [1] = biological target: soluble uPAR (suPAR) (UniProt Q03405); assay: SPR (Biacore 2000), antibody captured on protein A/G surface, suPAR injected, 25 C, 1:1 Langmuir fit
soluble uPAR (suPAR) [2] = biological target: soluble uPAR (suPAR) (UniProt Q03405); assay: SPR (Biacore 2000), antibody captured on rabbit anti-mouse surface, suPAR injected, 25 C, 1:1 Langmuir fit

Kd (soluble uPAR (suPAR) [1]) [nM]	Kd (soluble uPAR (suPAR) [2]) [nM]	Substance
0.39		Human Engineered ATN-658 variant HE ATN-4, renamed humanized mAb MNPR-101 (antibody)
	0.38	mouse monoclonal antibody ATN-658
